Experimental data as given in article PMC11835246, “Capsid transfer of the retrotransposon Copia controls structural synaptic plasticity in Drosophila” (PLOS Biology, 2025).

B1: Copia^Gag capsid protein (wild type), auto-processed from His6-SUMO-Copia^Gag+PR (natural protein)
chain: not shown
notes: Copia retrotransposon Gag (capsid CA, residues 1-186, and nucleocapsid NC, residues 186-270), Drosophila; product of auto-processing of the short spliced form Copia^Gag+PR, whose protease part is cut off in E. coli; Limits 1-270 put together from the stated CA (1-186) and NC (186-270) domains; the cleavage site between Gag and PR is not otherwise stated; Carries co-purified RNA unless this is …
B2: Copia^GagΔNC (domain or fragment)
chain: not shown
notes: Copia retrotransposon Gag, Drosophila, capsid (CA) region only; residue H186 mutated to a stop codon in the pSMT3_His6-SUMO-Copia^Gag+PR plasmid, so the chain ends at residue 185 and lacks the NC (Zn-finger) domain; also called Copia^gag-ΔNC variant; not shown: His6-SUMO, N-terminal, cleaved

Assays:
[1] = molecular target: the molecule itself; test: negative-stain EM; purified Copia^Gag after removal of His6-SUMO, with co-purified RNA, 0.8 mg/ml, 1% uranyl acetate; capsid-like particles of 30 nm to more than 120 nm
[2] = molecular target: B1; test: SEC; Superose 6 Increase 10/300 GL after overnight Ulp1 digestion; 25 mM HEPES pH 7.4, 150 mM NaCl, 10% glycerol, 100 uM ZnCl2, 500 mM imidazole, 2 mM 2-mercaptoethanol; assembled capsids elute at fraction 7, unassembled protein at fractions 24 to 26; conditions: both partners purified

| Binder | binding result [1] | binding result [2] |
| --- | --- | --- |
| B1 | binds |  |
| B2 |  | binds |
